Non-standard residues stand in square brackets, D forms with d. No end group written: not given here. Cit = NC(=O)NCCC[C@H](N)C(=O)O
Tests used:
[1] = biological target: T1, huFibα XG (human, X at position 8 is citrulline; biotin label); test: peptide ELISA, 10 ug/well
T1 peptide: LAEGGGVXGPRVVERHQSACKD
Experimental: (§1) Biotin and citrulline-containing peptides derived from fibrinogen and vimentin were immobilized on NEUTRAVIDIN®-coated 96-well ELISA plates (0.3 μg/well). CFC-1 and CFC-0 were coated at the same concentration and served as positive and negative controls respectively for specific anti-citrulline reactivity and as coating controls. Non-coated wells were used to test for aspecific binding of the antibodies. […] Detection of bound anti-citrulline antibodies was performed by incubating the wells with rabbit-anti-human-HRP (1:2000) for one hour at RT followed by incubation with TMB substrate. The resulting OD (y-axis) is a measure for antibody binding.
(§2) Biotin-labeled and citrulline-containing fibrinogen and vimentin peptides (Table 5) were also tested for reactivity with the therapeutic antibodies. Peptides were coated on 96-well NEUTRAVIDIN®-ELISA plates.

[2] = biological target: T2, CFC-1; test: peptide ELISA, 10 ug/well
T2 construct: Positive control for anti-citrulline reactivity; also called cfc1 XG
Experimental: as §1, §2

[3] = biological target: T3, msVim XS/XL (mouse, also: biotin label); test: peptide ELISA, 10 ug/well
T3 construct: also called mouse vimentin peptide
T3 peptide: YVT[Cit]SSAV[Cit]L[Cit]SSVP
Experimental: as §1, §2

[4] = biological target: T4, msFibα XH (mouse, X at position 15 is citrulline; biotin label); test: peptide ELISA, 10 ug/well
T4 peptide: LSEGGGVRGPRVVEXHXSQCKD
Experimental: as §1, §2

[5] = biological target: T5, msFibβ XG (mouse, also: biotin label); test: peptide ELISA, 10 ug/well
T5 peptide: EPTDSLDA[Cit]GHRPVDRR
Experimental: as §1, §2

[6] = biological target: T6, huFibα XH (human, X at position 15 is citrulline; biotin label); test: peptide ELISA, 10 ug/well
T6 peptide: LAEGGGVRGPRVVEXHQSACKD
Experimental: as §1, §2

[7] = biological target: T7, msFibα XG (mouse, X at position 8 is citrulline; biotin label); test: peptide ELISA, 10 ug/well
T7 peptide: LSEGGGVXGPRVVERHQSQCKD
Experimental: as §1, §2

[8] = biological target: T8, Histone 2A citrulline-containing peptide 11 (human, also: biotin label); test: peptide ELISA, 0.08 ug/well
T8 peptide: LQLAI[Cit]NDEELN
Experimental: as §1, with “histone 2A” for “fibrinogen and vimentin”
(§3) Ninety-six-well ELISA plates were coated with NEUTRAVIDIN® (0.1 μg/well) by overnight incubation at 4° C. Wells were washed five times with PBS-TWEEN®-20 (PBS-T) and blocked by a one-hour incubation with PBS-T+1% Bovine serum albumin (BSA) at room temperature (RT). After five more washes with PBS-T, wells were incubated for one hour at RT with histone-derived citrulline and biotin-containing peptides (0.3 μg/well). […] Wells were washed five times with PBS-T and incubated with rabbit-anti-human-HRP (1:2000) for one hour at RT followed by five washes with PBS-T and three wash steps with PBS. Wells were incubated for five minutes with TMB substrate before stopping the reaction with 2 M H₂SO₄. Optical density was measured by 450 nm and is a measure for the affinity of the antibodies used.

[9] = biological target: T9, Histone 2A citrulline-containing peptide 12 (human, also: biotin label); test: peptide ELISA, 0.08 ug/well
T9 peptide: NKLLG[Cit]VTIAQG
Experimental: as §1, with “histone 2A” for “fibrinogen and vimentin”
as §3

[10] = biological target: T2, CFC-1; test: peptide ELISA, 0.08 ug/well
Experimental: as §1, with “histone 2A” for “fibrinogen and vimentin”
as §3

[11] = biological target: T10, Histone 2A citrulline-containing peptide 6 (human, also: biotin label); test: peptide ELISA, 0.08 ug/well
T10 peptide: VHRLL[Cit]KGNYSE
Experimental: as §1, with “histone 2A” for “fibrinogen and vimentin”
as §3

[12] = biological target: T11, Histone 2A citrulline-containing peptide 8 (human, also: biotin label); test: peptide ELISA, 0.08 ug/well
T11 peptide: AGNAA[Cit]DNKKTR
Experimental: as §1, with “histone 2A” for “fibrinogen and vimentin”
as §3

[13] = biological target: T12, Histone 2A citrulline-containing peptide 1 (human, also: biotin label); test: peptide ELISA, 0.08 ug/well
T12 construct: also called AAASGXGKQGGK
T12 peptide: AAASG[Cit]GKQGGK
Experimental: as §1, with “histone 2A” for “fibrinogen and vimentin”
as §3

[14] = biological target: T13, Histone 2A citrulline-containing peptide 9 (human, also: biotin label); test: peptide ELISA, 0.08 ug/well
T13 peptide: DNKKT[Cit]IIPRHL
Experimental: as §1, with “histone 2A” for “fibrinogen and vimentin”
as §3

[15] = biological target: T14, Histone 2A citrulline-containing peptide 3 (human, also: biotin label); test: peptide ELISA, 0.08 ug/well
T14 peptide: KSRSS[Cit]AGLQFP
Experimental: as §1, with “histone 2A” for “fibrinogen and vimentin”
as §3

[16] = biological target: T15, Histone 2A citrulline-containing peptide 4 (human, also: biotin label); test: peptide ELISA, 0.08 ug/well
T15 peptide: QFPVG[Cit]VHRLLR
Experimental: as §1, with “histone 2A” for “fibrinogen and vimentin”
as §3

[17] = biological target: T16, Histone 2A citrulline-containing peptide 2 (human, also: biotin label); test: peptide ELISA, 0.08 ug/well
T16 peptide: AKAKS[Cit]SSRAGL
Experimental: as §1, with “histone 2A” for “fibrinogen and vimentin”
as §3

[18] = biological target: T17, Histone 2A citrulline-containing peptide 5 (human, also: biotin label); test: peptide ELISA, 0.08 ug/well
T17 peptide: VGRVH[Cit]LLRKGN
Experimental: as §1, with “histone 2A” for “fibrinogen and vimentin”
as §3

[19] = biological target: T1, huFibα XG; test: peptide ELISA, 0.016 ug/well
Experimental: as §1, §2

[20] = biological target: T2, CFC-1; test: peptide ELISA, 0.016 ug/well
Experimental: as §1, §2

[21] = biological target: T3, msVim XS/XL; test: peptide ELISA, 0.016 ug/well
Experimental: as §1, §2

[22] = biological target: T4, msFibα XH; test: peptide ELISA, 0.016 ug/well
Experimental: as §1, §2

[23] = biological target: T5, msFibβ XG; test: peptide ELISA, 0.016 ug/well
Experimental: as §1, §2

[24] = biological target: T6, huFibα XH; test: peptide ELISA, 0.016 ug/well
Experimental: as §1, §2

[25] = biological target: T7, msFibα XG; test: peptide ELISA, 0.016 ug/well
Experimental: as §1, §2

B1: RhmAb2.102 (antibody, human IgG1, lambda)
heavy: not shown
light: QSVLTQPPSMSAAPGQKVTISCSGSSSNIGNNYVSWYQQVPGTAPKLLIYDDNKRPSGIPGRFSGSKSATSATLGITGLQAGDEADYYCGSWDDNLSVVLFGGGTKLTVLGQPKAAPSVTLFPPSSEELQANKATLVCLISDFYPGAVTVAWKADSSPVKAGVETTTPSKQSNNKYAASSYLSLTPEQWKSHRSYSCQVTHEGSTVEKTVAPTECS
notes: Human IgG1 lambda; also called Rhm2.102
OD [1]: 2.73 OD | OD [2]: 3.89 OD | OD [3]: 3.69 OD | OD [4]: 0.154 OD | OD [5]: 3.8 OD | OD [6]: 0.179 OD | OD [7]: 3.03 OD | OD [8]: 0.064 OD | OD [9]: 0.06 OD | OD [10]: 2.66 OD | OD [11]: 0.123 OD | OD [12]: 0.06 OD | OD [13]: 2.04 OD | OD [14]: 0.06 OD | OD [15]: 0.091 OD | OD [16]: 0.192 OD | OD [17]: 0.086 OD | OD [18]: 0.066 OD | OD [19]: 0.103 OD | OD [20]: 1.22 OD | OD [21]: 0.201 OD | OD [22]: 0.081 OD | OD [23]: 0.174 OD | OD [24]: 0.08 OD | OD [25]: 0.107 OD

— patent US20170298146A1 (MODIQUEST B V, published 2017)
